Measurements as given in the domain aggregation screens of Martell et al. (2025).

Test: soluble fraction after stress (log2 fold change); higher = more stays soluble; pooled small domains, quantitative proteomics
Conditions: stress: 75 degC
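Also: 20 min heating vs room temperature control held 20 min.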

## HMSSIFTRIIAGEIPSYKVAEDENYYAFLDINPLTKGHTLVVPKMEVDYIFDLDDKTLAGMMLFAKKG
  soluble fraction (log2): -0.129

## HMRPNREKDMADLEKLAPFLLQMLTNYAQMTGDEKPLNAFITRFGYAAQIRDIQDFFMGPWHPA
  soluble fraction (log2): ≥ 1.04

## HMGGNDALEIAKSNPQVIEVLGEPVTKDGMGSYSVNYKNGHKTSEATIPIEGPNGTATLHVKTSGSDDAL
  soluble fraction (log2): 0.237

## HMKASEMKKGQTIKIDGVLYVIVDFQHVKLSKGGAVYQTKLRNLAAGGIRDIRIRAEEVLEDA
  soluble fraction (log2): -2.97

## HMGIILDWELFEQFADKLKRKKVDFVIEPYLRFEGRRGEQSTLFIKDPSGNYLEFKAFKNIDMLFEK
  soluble fraction (log2): -1.78

## HMDIAATTVKQKIRTLLADEDAARPLSDQKIADALAEDGIDVARRTVAKYREELGIEPSWARKR
  soluble fraction (log2): 0.106

## HMIGIGSDVPNKLKPAIYSFGLVAVGEKSVIPDGVQIGKNTAVSGVTSKEDYPDGVLESGETLIKA
  soluble fraction (log2): 0.186

## HMLGSVRTIRQVLDDGRLIVADGGGNPSVIRRSGALAHETFANGQRVIVDPSGRLALELLPD
  soluble fraction (log2): 0.171

## HMTAAPEVRVEGLFKGAAVLKIDGQQVMLKKGRSHSSGVTLVDANAHRAIVEIDGQRHELALHMA
  soluble fraction (log2): -0.0588

## HMYGTERILAQLANYGIPNKLAFQIQDFYKEETLQIVEQQPYRLVEDIQGMGFKIADQLAEELGI
  soluble fraction (log2): -0.307

## HMSQLLHELLAHVLKDRIISGEWPAGSRIMSEHALQERYGVSRGTVRRALAQLVQEGLLVQRKGKGTFVTR
  soluble fraction (log2): -2.59

## HMAVWRIKVNYIPGYGVNIWSSYKNGHFTGKRAMHGETYEVLETKKDQDGNTWYKLDDHQWIEGRYAINAK
  soluble fraction (log2): -2.45

## HMNQWQLLSEDGAILGTRVLYHPHETEQPFTRSLSGVKIPAHVQSVTIRAGDLVHGFGGREIQMQLPPIV
  soluble fraction (log2): -0.0313

## HMRMTKPLPFDLAAFRNEFGFTKSIIMQEVGVSRHIYDNVERTNATPPEFYDDFVSFFQRHGQ
  soluble fraction (log2): -1.88

## HMDRWTPLVVAVLSRGSHRFGELRAAIGGITPKVLTDTLRSMERDGLITRDQAPGVPPRVDYALTPLGS
  soluble fraction (log2): -1.43

## HMVPPVVRTIYGAGGKMTATFLFPGGYEVDAASGAELPGKYRVESISLDQVVLTDKDGNRVPVGFSSVAPT
  soluble fraction (log2): 0.149

## HMRLSAADLQSYLKGMDYPASRQDLIAHARGHNAPEEAVATLEQFSDRTYRSAADVSVEFGRE
  soluble fraction (log2): 0.254

## HMSPKYLELVRWINTQIQEKKLTAGQKMYSENELKEMFGVSRQTVRHAISVLEGEGMIRRVRGSGTYINDN
  soluble fraction (log2): -2.42

## HMTLNTQLFTWKKGVRVGEDDQGNIYYRTKDDKRRWVIFTGETEATKVSPDWHGWLHRTWATPPNK
  soluble fraction (log2): -2.27

## HMGNIADARRDASYVFLIGEWAKSSNLTEKKLAGLIQSNHLDIKYGITVTDVIADIRKYKNDPTYNPF
  soluble fraction (log2): -2.19

## HMIDLSELINKTGSAYTNLRPSGTAVIGDDRVDVVTEGTFVEKDRPVKVVAVEGQRVVVREVE
  soluble fraction (log2): 0.209

## HMGWQPDPLTTRERLVAELATQASNAQIAEQLHLSVRTVEGHLAHVYTKLGITTRRELPAALAGAR
  soluble fraction (log2): -1.55

## HMPTAGYMTVTPDRVKEGQQFLATLRPPYVLKADGLAAGKGVLILPELEEAQRELEEMLGGFLGELSVNR
  soluble fraction (log2): 0.136

## HMSVPNVVGRDQVEASSLLESAGFKVSVKQSYSDSVEQGKVISQSPSGSTTVSPGSTVTITVSQ
  soluble fraction (log2): 0.395

## HMRIYFSPSEIGFYHESDKQAYLLAGTWPNDLLEISEKWFLYLLEGQQKGKVITVNDYDQPVLVD
  soluble fraction (log2): -2.9

## HMSGSLLQTRQRLQALTDLGHYKGDLAAAWGPEAIEALKRAQAALGITVDGKWGPETEDAIQVALQAQT
  soluble fraction (log2): -0.00363

## HMDMRLADLIGRDGITITFMRPSGKVEIDGEIYDAVSDVGLIDKNEEVEVIKFENAQLVVTKKNKN
  soluble fraction (log2): 0.102

## HMSLREKNKARTRTAILNAARDLAKQGQWDAITTRQIADAAGVSYQTLYNYYPSKASILVEMLL
  soluble fraction (log2): -2.03

## HMINPASEKQLSFANSLIAKKEGGTETLNHYLHNRKVSSLEELDRKDVSEIINALKFAKEVT
  soluble fraction (log2): 0.641

## HMILESREKYLGEVLEVLVEEEKEGEYFGYSQNYLRVKFKLEEKNLINQLINIKIKSIEDDILIGEKEN
  soluble fraction (log2): -3.46

## HMAADRRKAERPLIDGQAVMDRFEVGPGPMVGKALKFLLALKRAEPDLDLAGTEERLDAWWNEQL
  soluble fraction (log2): 0.0606

## HMLINFPNKLKRLRLANNLTQQELANILETTKQAVSSYESGKSTPSLNSLIKLSEHFNISLDSLVFD
  soluble fraction (log2): -0.038

## HMRKIEDVLRLHAQGMSTRRIALATGVGKTTVIEYLRRAAVAGLSWPLPEGLDEEALERRVFPPPP
  soluble fraction (log2): -2.59

## HMEKKDTYTVKNGDSLWGIARTELGDGGRFREIYTLNADTIEAEAKKRGRSSSSEGHWIYPGSVLRLP
  soluble fraction (log2): 0.304

## HMPATPDATVQAVQQRLNELGYDVGSADGLMGRGTRSAIIAFQQDRGLAATGVADQALLLQLQP
  soluble fraction (log2): 0.105

## HMREPDPELTASIKSMAESNDQSERLVALAQLSEQRAVDPEVADQILLIALLDEDPIIRGQAVYA
  soluble fraction (log2): 0.274

## HMYIDLHEIWKSLTDEEQTVVKLLETEPAHVDTLIENSQIPASRILATLTLLEVRGIVKRLPGRMFSLAD
  soluble fraction (log2): -3.61

## HMVPLTPGELVGTEVRVLWWKEGRGEVIASSRGHQLTLEAHSEDPLRAGSTAVVLEAADDVLVVTS
  soluble fraction (log2): -0.734

## HMFDFMVLGQAIKKARESKEMTREQLAEILDVAPRHIQSIENEGQYPSFPLFIRLVTMFNISVDQY
  soluble fraction (log2): -2.31

## HMENVQLRNFAIKATEAGIIKLSSDQRTFMWASNQKKLMTVPFDEHPYSAMAQFFKTDEGLAVFKSIEKKL
  soluble fraction (log2): -1.47

## HMTPATVVIPKVAGQTVAEAKETLKNANFEIGEEKDESSDTVEEGRVIRTDPESGTNRKEGTKINLIVSS
  soluble fraction (log2): 0.0198

## HMQITTVSPKNYAEAELIGQRFREGNPVVMDLSKLDSDLGQRLVDFASGLVFALNGTVERIAKKVFLLSP
  soluble fraction (log2): -1.37

## HMVKIVWSKEGPYVGTRVRRYFSQGPVDGTVVMYAKPQKGDDVALWRISHDDGDEEDLEEQELRLAID
  soluble fraction (log2): -1.06

## HMSPPALAVQRDGSNVQISWPGAEEGWRLESSAEPSGAAWDLIAQNPTPVGGRWTVSLTEPTGRRFYRLVK
  soluble fraction (log2): -0.0804

## HMGQLVVHQIKGEASRLDKFLVVNIPKYSRSVWREMINNGSVQVNGRVVKPHLLVKEGDIITWSS
  soluble fraction (log2): -1.4

## HMSLSNMIGKNIQWTHVTKTKDAEGNPKTNSETFAGNVRGVKVLNGKPMVVAQDAKGKLHEVEVSEIEAIA
  soluble fraction (log2): 0.0953

## HMEKKGTVVIATVKGDIHDIGKNIVKVLLENYGFDVIDLGKDVPPEAVVEAVQQSGARLVGLSALM
  soluble fraction (log2): -0.898

## HMHDAKAEIIRLSALLTEYQRSYYIDGHSQVSDLEYDRLFDRLVALETSHPELREADSPTQRV
  soluble fraction (log2): -0.917

## HMKYNGDRPVFNDDVAWAKWMLENPAKITSHDKENLSSMLKKPEVVMLFEAEDLSVPDLRTLAKE
  soluble fraction (log2): ≥ 1.04

## HMSLLTPLEEARIVIEELIIPQKLTLDLLPQNSQIRKLQHEIINHYRLKGISIGDGKNRRVRIYS
  soluble fraction (log2): -0.204

## HMRTVEQFQIRKIYAISNALGISDSRADEDELHVLVSGLTGKDSIKELTYREASVVIERLEELQ
  soluble fraction (log2): -2.22

## HMDPSHGESRENLDIMRIIDETHLEYPSWGYRKMTDHLRANHGYTINRKRVRRLMRLMDIIALFPG
  soluble fraction (log2): -1.33

## HMTRVDALDQLAAIRFSSHIFAEDQDLRMVVVDGQRIGEGDIVRDEIRLEQITETGVIFEYQGERFPIDV
  soluble fraction (log2): -1.45

## HMQYKTRVINLSILEVGMVLGRDLINKDGKIIVKKDVAISDFLKDHLIGLSKIKEIEPQIYIKV
  soluble fraction (log2): -1.15

## HMFNPEQDPKQLTGRERAVADLIGLGANNAEIAIRLSMSERTVKAHLTSIFQQLNVRDRVQLALVMNQL
  soluble fraction (log2): -0.493

## HMVQISNTDDLYPIVQRIVDANPQSVEDYKNGKAKALGFLVGQMMKETKGKANPSMVNDLIIKAIEE
  soluble fraction (log2): -0.022

## HMTEKMILKWKEALERMNDDFTTKDWLNVVIHEMGKSERTAYGWLSDMKRSGIIKDLGYGSWLKVLE
  soluble fraction (log2): -1.37

## HMDSLNWVEKIINTLPEQQRLIIQMRDIEQYEFAEIAKILEMNETAIRVALSRARKTIREFMIKTH
  soluble fraction (log2): -2.07

## HMDFDVELTSAGTAKVKVIKAVREATGLGLKEAKDLVDNAPSIVKEGLDEAAANDLKAALEETGASVTL
  soluble fraction (log2): 0.0189

## HMEISPGDVFKQLPGIGDDLSRRVVESLGIQSLEELESAAHDGRLEQVEGFGERRVQMVRAVLTGMLS
  soluble fraction (log2): -0.00517

## HMLNMTLGDRIRSRREELRMSQEELATRLGYKSRSTIAKIESGENDLTQSKIVAFAEALSTTARWLLDY
  soluble fraction (log2): -1.88

## HMLTRYNVNYYYNGEILQRRKVAEGSAAERITYLSGSLEVTDWYTEADLLRKYDFTEPVTGDLNLYAFARI
  soluble fraction (log2): -1.42

## HMSFNNHYEILQVQPSADREVIEAAAKALLKKHHPDLGGRNTITSHIVQAKKVLTDTSQRADFDARLRERL
  soluble fraction (log2): -0.135

## HMKGERHNKILELIQQHAIDRQEDLLRYLKEAGFQVTQATVSRDIRELHLVKVAAGGGQYRYVSAAAAS
  soluble fraction (log2): -1.04

## HMPTGRVVIPLNRLTASDVARILDEAYGRDHNFEVVKPSRLAKGIIVIGPKSEIDGIKELLAH
  soluble fraction (log2): -0.829

## HMKGTLPEMITSREEVVLKFMVNGWDAKRIASELDISVLTVRKHIANIYEKLHVQSKAEIISMAHQQKWFN
  soluble fraction (log2): -3.27

## HMHTDQVLVMTRAVGQGEIVRNTDVGLTSVAVDRAVTTIPASQLDEIVGRHALVDLSAGQLLGSHSVGA
  soluble fraction (log2): 0.109

## HMSVGDLLENLIRETRAQFSAPPESLGVAEKRRFVALLSQKGGFLLKGAVSRAASVLGVSEQTVYRYLKDS
  soluble fraction (log2): -1.83

## HMKEFSFNGGKVIMNYEADRIQIKHDSRPNQEVITLMKRNGFKWSPTNQAWQRQITGNAIYVTKNLLKS
  soluble fraction (log2): -2.33

## HMQITNEGQIKLVISEVLNENQEQKKQYLSGKEQVLGYLIGKVMQKTKGKANPKLVNDLMIKELS
  soluble fraction (log2): -0.135

## HMLARPTANELVKEMQRRAKEQRTELPPDAARDLLERSGQDQFLLGNEVDKLAALSGYTTITREMVAQAGT
  soluble fraction (log2): 0.247

## HMATPIAGTKYTLNNTPVYGTEKGPSIGKRSGIYYTWDATVRNGRIRMTNSPARVGVPWQVSFWVEVNKL
  soluble fraction (log2): -2.9

## HMTMQTAEQESRLEQKLIDLSVGIDRFEGYSRPHGQLIASIADRIGTRLGMAAHDRFYMQQAAL
  soluble fraction (log2): 0.203

## HMSIQREIILEVIKNNRTHPTAEEIYILVTKKEPKISRSTVYRNINILVEKGIIEKITIATGPDRYDY
  soluble fraction (log2): -1.53

## HMQRSVNYSELHEIKERVFDALYSSPMSMPDLLAWLKGDEEHTISVIRLMQDNGDIEMGEDGRLAVV
  soluble fraction (log2): -0.383

## HMPARTANEEAIRKYLLNHDSITRKETQALLKTGQSAAGRILKEMVENGWLARIGNGRSTGYELR
  soluble fraction (log2): -0.222

## HMIVDINDVRIDKYIADNTDYSRNLILNLIKNGDILVNDSKIKPSYKVKQGDKITINNVKTD
  soluble fraction (log2): 0.332
